Assays:
[1] = biological target: human delta opioid receptor (human) (UniProt P41143)
[2] = biological target: human kappa opioid receptor (human) (UniProt P41145); assay: radioligand binding; displacement of [3H]U-69593 from commercial membranes of CHO cells transfected with the human recombinant kappa opioid receptor; Ki, mean ± SEM, n ≥ 3
[3] = biological target: human delta opioid receptor (human) (UniProt P41143); assay: radioligand binding; displacement of [3H]deltorphin-2 from commercial membranes of CHO cells transfected with the human recombinant delta opioid receptor; Ki, mean ± SEM, n ≥ 3
[4] = biological target: human mu opioid receptor (human) (UniProt P35372)
[5] = biological target: RLuc-tethered human mu receptor fusion protein (human) (UniProt P35372)
[6] = biological target: human mu opioid receptor (human) (UniProt P35372); assay: radioligand binding; displacement of [3H]DAMGO from commercial membranes of CHO cells transfected with the human recombinant mu opioid receptor; Ki, mean ± SEM, n ≥ 3
[7] = biological target: human kappa opioid receptor (human) (UniProt P41145)

calcium mobilization, CHO cells with delta receptor and GαqG66Di5: α (Emax ratio to the standard agonist) [1] | Ki [2] [nM] | Ki [3] [nM] | calcium mobilization, CHO cells with human mu receptor and Gαqi5: α (Emax ratio to the standard agonist) [4] | BRET of mu-RLuc with Gβ1-RGFP promoted by the peptide, SH-SY5Y membranes: Emax (EM-2 = 1.00) [5] | Ki [6] [nM] | BRET of mu-RLuc with β-arrestin 2-RGFP promoted by the peptide, living SH-SY5Y cells: Emax (EM-2 = 1.00) [5] | BRET of mu-RLuc with β-arrestin 2-RGFP promoted by the peptide, living SH-SY5Y cells: Emax (EM-2 = 1.00), forced to 1 [5] | calcium mobilization, CHO cells with human kappa receptor and Gαqi5: α (Emax ratio to the standard agonist) [7] | Substance
1 |  |  |  |  |  |  |  |  | DPDPE (peptide)
 | 830 | 560 |  |  |  |  |  |  | EM-2 analog 1 (Dmt-Pro-Phe-Phe-NH2) (peptide)
 | > 1000 | 682 | 0.64 | 0.83 | 17.7 |  |  |  | EM-2 analog 2 (Tyr-(R)-Pip-Phe-Phe-NH2) (peptide)
 | > 1000 | > 1000 | 0.99 | 1.11 | 0.85 | 1.3 |  |  | EM-2 analog 4 (Tyr-(R)-Nip-Phe-Phe-NH2) (peptide)
 | 890 | 286 | 1 | 1.05 | 0.14 | 1.16 |  |  | EM-2 analog 9 (Dmt-(R)-β3-Ala-Phe-Phe-NH2) (peptide)
 |  |  |  |  |  |  |  | 1 | dynorphin A (peptide)
 | > 1000 | > 1000 |  |  |  |  |  |  | endomorphin-2 (Tyr-Pro-Phe-Phe-NH2) (peptide)

Continued, substance first:

Substance | calcium mobilization, CHO cells with delta receptor and GαqG66Di5: α (Emax ratio to the standard agonist) [1] | Ki [2] [nM] | Ki [3] [nM] | calcium mobilization, CHO cells with human mu receptor and Gαqi5: α (Emax ratio to the standard agonist) [4] | BRET of mu-RLuc with Gβ1-RGFP promoted by the peptide, SH-SY5Y membranes: Emax (EM-2 = 1.00) [5] | Ki [6] [nM] | BRET of mu-RLuc with β-arrestin 2-RGFP promoted by the peptide, living SH-SY5Y cells: Emax (EM-2 = 1.00) [5] | BRET of mu-RLuc with β-arrestin 2-RGFP promoted by the peptide, living SH-SY5Y cells: Emax (EM-2 = 1.00), forced to 1 [5] | calcium mobilization, CHO cells with human kappa receptor and Gαqi5: α (Emax ratio to the standard agonist) [7]
EM-2 analog 3 (Dmt-(R)-Pip-Phe-Phe-NH2) (peptide) | 0.56 | 72 | 37 | 0.7 | 0.83 | 3.92 |  |  | 
EM-2 analog 5 (Dmt-(R)-Nip-Phe-Phe-NH2) (peptide) |  | 567 | 589 | 1 | 1.11 | 0.14 | 1.26 |  | 
EM-2 analog 6 (Tyr-(R)-β2-Ala-Phe-Phe-NH2) (peptide) |  | > 1000 | > 1000 | 0.88 | 0.86 | 46.8 |  | 1 | 
EM-2 analog 7 (Dmt-(R)-β2-Ala-Phe-Phe-NH2) (peptide) |  | 807 | 571 | 0.95 | 0.98 | 0.31 | 0.61 |  | 
EM-2 analog 8 (Tyr-(R)-β3-Ala-Phe-Phe-NH2) (peptide) |  | > 1000 | > 1000 | 0.99 | 0.96 | 0.44 | 1.12 |  | 
EM-2 analog 10 (Tyr-Pro-(R)-β2-1-Nal-Phe-NH2) (peptide) |  |  |  |  | 0.68 |  |  |  | 
EM-2 analog 11 (Dmt-Pro-(R)-β2-1-Nal-Phe-NH2) (peptide) |  |  |  |  | 0.81 |  |  |  | 
EM-2 analog 12 (Tyr-Pro-(R)-β3-1-Nal-Phe-NH2) (peptide) |  |  |  |  | 0.96 |  | 0.73 |  | 
EM-2 analog 13 (Dmt-Pro-(R)-β3-1-Nal-Phe-NH2) (peptide) |  |  |  |  | 0.84 |  | 0.37 |  | 

Reference: PMC9998502, “Functional selectivity of EM-2 analogs at the mu-opioid receptor” (Frontiers in Pharmacology, 2023)
